# Source: the supplement of paper PMC7877785
# ± gives the uncertainty stated by the source.
# Assay: self-splicing fitness, log relative to wild type (ln ratio); higher = more splicing; Tetrahymena group I intron in knt gene, E. coli kanamycin selection, DiMSum; sequences stand for … in CUCUCU…GGAGGGAAAAGUUAUCAGGCAUGCACCUGGUAGCUAGUCUUUAAACCAAUAGAUUGCAUCGGUUUAAAAGGCAAGACCGUCAAAUUGCGGGAAAGGGGUCAACAGCCGUUCAGUACCAAGUCUCAGGGGAAACUUUGAGAUGGCCUUGCAAAGGGUAUGGUAAUAAGCUGACGGACAUGGUCCUAACCACGCAGCCAAGUCCUAAGUCAACAGAUCUUCUGUUGAUAUGGAUGCAGUUCACAGACUAAAUGUCGGUCGGGGAAGAUGUAUUCUUCUCAUAAGAUAUAGUCGGACCUCUCCUUAAUGGGAGCUAGCGGAUGAAGUGAUGCAACACUGGAGCCGCUGGGAACUAAUUUGUAUGCGAAAGUAUAUUGAUUAGUUUUGGAGUACUCGUGGUCG
# Method in brief: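 Fitness was computed with DiMSum as the error-weighted combination of replicate fold changes, kanamycin versus none, each normalised to wild type. The library randomised all eight intron nucleotides of the P1ex region, with the intron placed in the knt kanamycin-resistance gene on pET-22b(+) in E. coli BL21(DE3). Six replicate transformations were grown overnight at 37°C or 30°C on LB agar with or without 25 μg/mL kanamycin, plus 100 μg/mL carbenicillin, 50 μM IPTG and 0.2% rhamnose. Pooled colonies were amplicon-sequenced on an Illumina HiSeq 2500.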
Sequence,self-splicing fitness (ln) (30 °C),self-splicing fitness (ln) (37 °C)
UAUCAGCAAUAUUACGGUUA,-0.0611 ± 0.064,0.0198 ± 0.07
UAUCAGCAAUAUUACGGUUC,-2.42 ± 0.14,0.223 ± 0.12
UAUCAGCAAUAUUACGUGAU,-3.01 ± 0.12,-1.51 ± 0.11
UAUGAGCAAUAUUACGAACC,-2.34 ± 0.4,
UAUGAGCAAUAUUACGAAGU,-4.08 ± 0.42,-1.93 ± 0.23
UAUGAGCAAUAUUACGAAUG,-2.49 ± 0.17,-1.28 ± 0.18
UAUGAGCAAUAUUACGACGU,-3.11 ± 0.21,-2.62 ± 0.3
UAUGAGCAAUAUUACGAUUU,-3.29 ± 0.26,-1.76 ± 0.22
UAUGAGCAAUAUUACGCAGG,-2.59 ± 0.26,-2.34 ± 0.22
UAUGAGCAAUAUUACGCGCG,-2.51 ± 0.31,-1.01 ± 0.27
UAUGAGCAAUAUUACGCGGC,-4.02 ± 0.29,-1.8 ± 0.25
UAUGAGCAAUAUUACGCGGG,-2.75 ± 0.3,-1.6 ± 0.23
UAUGAGCAAUAUUACGCUAA,-1.99 ± 0.23,-2.39 ± 0.25
UAUGAGCAAUAUUACGCUCU,-3.16 ± 0.41,
UAUGAGCAAUAUUACGCUGC,-4.14 ± 0.31,-2.78 ± 0.3
UAUGAGCAAUAUUACGGACA,-2.64 ± 0.35,-2.28 ± 0.29
UAUGAGCAAUAUUACGGAGA,-2.48 ± 0.28,-2.34 ± 0.27
UAUGAGCAAUAUUACGGAUU,-2.96 ± 0.28,-2.28 ± 0.31
UAUGAGCAAUAUUACGGCAA,-2.46 ± 0.38,-2.15 ± 0.3
UAUGAGCAAUAUUACGGCCA,,-1.18 ± 0.28
UAUGAGCAAUAUUACGGGGA,-2.94 ± 0.39,
UAUGAGCAAUAUUACGGUCG,-2.52 ± 0.12,-1.19 ± 0.12
UAUGAGCAAUAUUACGUCAU,-3.16 ± 0.2,-2.38 ± 0.23
UAUGAGCAAUAUUACGUGCA,-2.09 ± 0.13,-2.32 ± 0.15
UAUGAGCAAUAUUACGUUGC,-2.19 ± 0.19,-2.65 ± 0.23

Sequence,self-splicing fitness (ln) (30 °C),self-splicing fitness (ln) (37 °C)
UAUUAGCAAUAUUACGACAU,-1.63 ± 0.017,-0.705 ± 0.035
UAUUAGCAAUAUUACGACGG,-0.886 ± 0.35,0.0207 ± 0.33
UAUUAGCAAUAUUACGAGCG,-0.705 ± 0.11,-0.219 ± 0.15
UAUUAGCAAUAUUACGAGUC,-3.35 ± 0.48,
UAUUAGCAAUAUUACGAUAG,-0.949 ± 0.16,-0.79 ± 0.17
UAUUAGCAAUAUUACGAUUA,0.102 ± 0.13,-0.402 ± 0.12
UAUUAGCAAUAUUACGAUUU,-1.76 ± 0.14,-0.438 ± 0.12
UAUUAGCAAUAUUACGCACA,-0.485 ± 0.13,-0.0783 ± 0.23
UAUUAGCAAUAUUACGCGAG,-2.21 ± 0.2,-0.0781 ± 0.15
UAUUAGCAAUAUUACGCGCA,-0.12 ± 0.13,0.163 ± 0.18
UAUUAGCAAUAUUACGCUAG,-2.36 ± 0.19,-0.845 ± 0.15
UAUUAGCAAUAUUACGCUAU,,-2.14 ± 0.29
UAUUAGCAAUAUUACGCUUG,-0.91 ± 0.11,-0.336 ± 0.16
UAUUAGCAAUAUUACGGCGU,-1.24 ± 0.18,-0.989 ± 0.18
UAUUAGCAAUAUUACGGGAU,,-2.61 ± 0.41
UAUUAGCAAUAUUACGGGUA,-0.742 ± 0.12,-0.599 ± 0.11
UAUUAGCAAUAUUACGGUCG,-0.442 ± 0.13,0.383 ± 0.23
UAUUAGCAAUAUUACGGUGG,-2.71 ± 0.28,-1.22 ± 0.2
UAUUAGCAAUAUUACGUACC,-3.37 ± 0.37,-1.26 ± 0.35
UAUUAGCAAUAUUACGUAGA,-2.62 ± 0.19,-1.38 ± 0.19
UAUUAGCAAUAUUACGUAUU,-3.62 ± 0.17,-1.25 ± 0.14
UAUUAGCAAUAUUACGUCCA,-0.691 ± 0.11,-0.00937 ± 0.15
UAUUAGCAAUAUUACGUCUG,0.0275 ± 0.14,-0.652 ± 0.1
UAUUAGCAAUAUUACGUGAG,-1.55 ± 0.094,0.0296 ± 0.13
UAUUAGCAAUAUUACGUUAG,-2.33 ± 0.18,-1.62 ± 0.17

Sequence,self-splicing fitness (ln) (30 °C),self-splicing fitness (ln) (37 °C)
UAUUAGCAAUAUUACGUUUC,-3.79 ± 0.28,-2.98 ± 0.34
UCAAAGCAAUAUUACGAAGA,-2.21 ± 0.18,-1.02 ± 0.13
UCAAAGCAAUAUUACGACGU,-0.985 ± 0.063,0.289 ± 0.069
UCAAAGCAAUAUUACGAUGG,-1.91 ± 0.1,0.127 ± 0.11
UCAAAGCAAUAUUACGAUUU,-3.58 ± 0.24,-2.3 ± 0.22
UCAAAGCAAUAUUACGCACC,,-0.644 ± 0.36
UCAAAGCAAUAUUACGCGUC,-3.15 ± 0.14,-2.89 ± 0.18
UCAAAGCAAUAUUACGCGUU,-3.65 ± 0.18,-3.64 ± 0.29
UCAAAGCAAUAUUACGCUGU,-3.7 ± 0.21,-2.82 ± 0.18
UCAAAGCAAUAUUACGGCAC,-3.33 ± 0.38,-1.68 ± 0.35
UCAAAGCAAUAUUACGGGAG,-4.12 ± 0.3,-2.5 ± 0.19
UCAAAGCAAUAUUACGGGCC,-3.12 ± 0.4,
UCAAAGCAAUAUUACGGUAA,-2.48 ± 0.16,-0.268 ± 0.13
UCAAAGCAAUAUUACGGUAG,-1.54 ± 0.088,-1.19 ± 0.11
UCAAAGCAAUAUUACGGUGC,-3.92 ± 0.42,-1.94 ± 0.39
UCAAAGCAAUAUUACGUAUC,-3.73 ± 0.23,-2.17 ± 0.19
UCAAAGCAAUAUUACGUAUG,-2.44 ± 0.12,-2.05 ± 0.15
UCAAAGCAAUAUUACGUCGC,-3.36 ± 0.18,-2.43 ± 0.25
UCAAAGCAAUAUUACGUCGU,-2.23 ± 0.11,-1.28 ± 0.11
UCAAAGCAAUAUUACGUCUC,-4.01 ± 0.36,-1.5 ± 0.19
UCAAAGCAAUAUUACGUGGG,-2.85 ± 0.098,-2.17 ± 0.12
UCAAAGCAAUAUUACGUUCC,-2.89 ± 0.38,
UCACAGCAAUAUUACGAAAA,-3 ± 0.31,-1.27 ± 0.17
UCACAGCAAUAUUACGAAGU,-2.55 ± 0.22,-3.34 ± 0.31
UCACAGCAAUAUUACGACGA,-0.431 ± 0.071,-0.228 ± 0.073

Sequence,self-splicing fitness (ln) (30 °C),self-splicing fitness (ln) (37 °C)
UCACAGCAAUAUUACGAUGC,-3.33 ± 0.17,-1.26 ± 0.13
UCACAGCAAUAUUACGAUGG,-1.52 ± 0.06,-0.512 ± 0.081
UCACAGCAAUAUUACGCGCU,-3.85 ± 0.21,-1.78 ± 0.16
UCACAGCAAUAUUACGCUAG,-2.91 ± 0.13,-1.49 ± 0.12
UCACAGCAAUAUUACGCUCC,-2.21 ± 0.27,-1.51 ± 0.37
UCACAGCAAUAUUACGCUUA,-1.66 ± 0.15,-0.902 ± 0.12
UCACAGCAAUAUUACGGAUU,-4.45 ± 0.13,-2.38 ± 0.096
UCACAGCAAUAUUACGGCGC,-2.08 ± 0.1,-1.02 ± 0.12
UCACAGCAAUAUUACGGGUC,-3.67 ± 0.16,-2.79 ± 0.14
UCACAGCAAUAUUACGGUGA,-3.99 ± 0.33,-2.77 ± 0.21
UCACAGCAAUAUUACGGUGG,-3.45 ± 0.14,-2.71 ± 0.18
UCACAGCAAUAUUACGGUUC,-2.91 ± 0.11,-2.7 ± 0.19
UCACAGCAAUAUUACGGUUG,-1.41 ± 0.087,-0.981 ± 0.11
UCACAGCAAUAUUACGUAAG,-1.98 ± 0.083,-1.33 ± 0.1
UCACAGCAAUAUUACGUACC,-2.45 ± 0.23,-2.37 ± 0.23
UCACAGCAAUAUUACGUGGG,-3.34 ± 0.12,-2.68 ± 0.12
UCACAGCAAUAUUACGUGUU,-3.9 ± 0.13,-2.46 ± 0.11
UCACAGCAAUAUUACGUUCA,-0.499 ± 0.074,-0.438 ± 0.078
UCACAGCAAUAUUACGUUGC,-4.42 ± 0.23,-2.95 ± 0.23
UCACAGCAAUAUUACGUUGU,-4.29 ± 0.18,-2.14 ± 0.12
UCAGAGCAAUAUUACGAAAA,,-2.13 ± 0.48
UCAGAGCAAUAUUACGACCU,-2.87 ± 0.36,
UCAGAGCAAUAUUACGAGCG,-4.27 ± 0.36,-1.23 ± 0.14
UCAGAGCAAUAUUACGAGGC,-1.74 ± 0.43,
